Measured values published in article PMC12169211.

B1: hybrid bispecific aptamer without toehold (HBA; 15-mer-Sticky + 29-mer-Sticky) (structured_DNA)
DNA 1: GGTTGGTGTGGTTGGTTTTTGACCCTGCGTACC
DNA 2: AGTCCGTGGTAGGGCAGGTTGGGGTGACTTTTTTGGTACGCAGGTC
B2: toehold hybrid bispecific aptamer (THBA; 15-mer-Sticky + 29-mer-Sticky-TH) (structured_DNA)
DNA 1: B1 DNA 1
DNA 2: AGTCCGTGGTAGGGCAGGTTGGGGTGACTTTTTTGGTACGCAGGTCCGTTA

Molecular target: thrombin (biotinylated, immobilized on streptavidin microparticles) (UniProt P00734;P00734 328-363;364-622)
Experiment: microparticle flow cytometry; Thrombin-microparticles incubated with 0.5-200 nM FAM-aptamer, washed with DPBS, flow cytometry; binding buffer, pH and temperature not stated

Binder | Kd [nM]
B1 | 4.8
B2 | ~5.7
